Experiment [1] has as its target SARS-CoV-1 spike antigens (bead panel) (SARS-CoV-1, UniProt P59594 14-1195). Put plainly: multiplex bead assay.
For experiment [2], the target named is T1, MERS-CoV spike antigens (bead panel) (MERS-CoV, UniProt K9N5Q8 18-1296).
T1 sequence: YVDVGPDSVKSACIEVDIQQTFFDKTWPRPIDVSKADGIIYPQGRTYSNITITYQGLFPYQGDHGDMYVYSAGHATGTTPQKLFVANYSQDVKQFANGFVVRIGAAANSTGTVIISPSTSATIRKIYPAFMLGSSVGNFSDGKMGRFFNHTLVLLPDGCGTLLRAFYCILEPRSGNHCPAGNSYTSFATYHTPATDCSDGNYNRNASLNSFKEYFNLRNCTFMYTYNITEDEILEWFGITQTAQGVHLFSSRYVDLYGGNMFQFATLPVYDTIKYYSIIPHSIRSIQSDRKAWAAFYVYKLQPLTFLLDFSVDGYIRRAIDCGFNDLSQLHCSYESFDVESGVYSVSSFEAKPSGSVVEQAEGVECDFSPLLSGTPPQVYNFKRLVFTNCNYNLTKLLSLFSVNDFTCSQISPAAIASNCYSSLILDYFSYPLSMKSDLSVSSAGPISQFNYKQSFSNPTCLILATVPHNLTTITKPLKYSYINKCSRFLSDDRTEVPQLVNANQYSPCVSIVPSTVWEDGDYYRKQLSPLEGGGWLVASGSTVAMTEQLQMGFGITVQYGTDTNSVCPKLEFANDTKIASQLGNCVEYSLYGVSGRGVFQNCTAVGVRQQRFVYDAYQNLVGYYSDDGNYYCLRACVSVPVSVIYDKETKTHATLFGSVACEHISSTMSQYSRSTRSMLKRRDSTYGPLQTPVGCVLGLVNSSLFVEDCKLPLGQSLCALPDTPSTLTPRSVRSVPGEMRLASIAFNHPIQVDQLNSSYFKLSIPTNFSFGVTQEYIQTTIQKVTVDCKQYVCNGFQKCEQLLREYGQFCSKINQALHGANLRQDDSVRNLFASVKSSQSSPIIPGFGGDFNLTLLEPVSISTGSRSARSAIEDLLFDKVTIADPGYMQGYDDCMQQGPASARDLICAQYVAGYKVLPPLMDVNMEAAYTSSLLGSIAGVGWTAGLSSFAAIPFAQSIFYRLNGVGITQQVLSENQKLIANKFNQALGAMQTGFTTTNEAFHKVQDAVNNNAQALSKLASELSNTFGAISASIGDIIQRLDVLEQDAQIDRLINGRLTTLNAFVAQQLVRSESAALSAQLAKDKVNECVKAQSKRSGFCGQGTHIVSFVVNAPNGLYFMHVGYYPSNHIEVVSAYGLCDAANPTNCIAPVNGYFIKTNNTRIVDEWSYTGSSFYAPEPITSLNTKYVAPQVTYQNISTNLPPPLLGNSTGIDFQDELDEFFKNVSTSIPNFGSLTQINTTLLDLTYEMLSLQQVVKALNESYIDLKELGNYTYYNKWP
Kind of experiment: multiplex bead assay.

For experiment [3], the target named is T2, HCoV-229E spike antigens (bead panel) (HCoV-229E, UniProt P15423 16-1115).
T2 sequence: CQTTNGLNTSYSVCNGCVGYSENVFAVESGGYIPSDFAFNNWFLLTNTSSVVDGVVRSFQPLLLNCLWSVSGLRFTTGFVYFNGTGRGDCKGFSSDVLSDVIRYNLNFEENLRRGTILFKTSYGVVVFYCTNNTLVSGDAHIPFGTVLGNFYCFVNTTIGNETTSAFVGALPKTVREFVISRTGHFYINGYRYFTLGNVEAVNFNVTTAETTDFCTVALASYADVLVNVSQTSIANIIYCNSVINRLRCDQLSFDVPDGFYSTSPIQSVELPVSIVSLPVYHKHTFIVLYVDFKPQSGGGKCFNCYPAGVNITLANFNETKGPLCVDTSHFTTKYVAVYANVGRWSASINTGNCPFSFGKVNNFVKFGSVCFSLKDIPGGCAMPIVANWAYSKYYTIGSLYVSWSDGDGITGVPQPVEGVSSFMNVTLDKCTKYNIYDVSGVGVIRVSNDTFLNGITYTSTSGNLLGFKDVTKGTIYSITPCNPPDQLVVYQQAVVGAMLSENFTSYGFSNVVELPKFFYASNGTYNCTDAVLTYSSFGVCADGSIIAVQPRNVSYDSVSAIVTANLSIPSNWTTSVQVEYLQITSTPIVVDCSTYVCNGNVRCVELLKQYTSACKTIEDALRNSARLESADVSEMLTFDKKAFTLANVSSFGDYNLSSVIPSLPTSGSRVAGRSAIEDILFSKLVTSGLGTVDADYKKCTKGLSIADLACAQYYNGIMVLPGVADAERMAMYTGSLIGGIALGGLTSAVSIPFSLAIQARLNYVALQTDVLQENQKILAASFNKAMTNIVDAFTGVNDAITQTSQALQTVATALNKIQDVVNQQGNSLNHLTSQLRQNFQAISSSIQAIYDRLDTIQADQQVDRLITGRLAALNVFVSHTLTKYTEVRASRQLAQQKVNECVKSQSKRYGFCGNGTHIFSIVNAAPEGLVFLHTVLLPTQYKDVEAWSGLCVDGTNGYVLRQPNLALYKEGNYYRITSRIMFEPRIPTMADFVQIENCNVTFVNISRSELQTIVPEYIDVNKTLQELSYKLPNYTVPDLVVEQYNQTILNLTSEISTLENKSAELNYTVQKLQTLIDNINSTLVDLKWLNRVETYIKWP
Put plainly: multiplex bead assay.

Experiment [4] deals with T3, HCoV-HKU1 spike antigens (bead panel) (HCoV-HKU1, UniProt Q5MQD0 13-1300).
T3 sequence: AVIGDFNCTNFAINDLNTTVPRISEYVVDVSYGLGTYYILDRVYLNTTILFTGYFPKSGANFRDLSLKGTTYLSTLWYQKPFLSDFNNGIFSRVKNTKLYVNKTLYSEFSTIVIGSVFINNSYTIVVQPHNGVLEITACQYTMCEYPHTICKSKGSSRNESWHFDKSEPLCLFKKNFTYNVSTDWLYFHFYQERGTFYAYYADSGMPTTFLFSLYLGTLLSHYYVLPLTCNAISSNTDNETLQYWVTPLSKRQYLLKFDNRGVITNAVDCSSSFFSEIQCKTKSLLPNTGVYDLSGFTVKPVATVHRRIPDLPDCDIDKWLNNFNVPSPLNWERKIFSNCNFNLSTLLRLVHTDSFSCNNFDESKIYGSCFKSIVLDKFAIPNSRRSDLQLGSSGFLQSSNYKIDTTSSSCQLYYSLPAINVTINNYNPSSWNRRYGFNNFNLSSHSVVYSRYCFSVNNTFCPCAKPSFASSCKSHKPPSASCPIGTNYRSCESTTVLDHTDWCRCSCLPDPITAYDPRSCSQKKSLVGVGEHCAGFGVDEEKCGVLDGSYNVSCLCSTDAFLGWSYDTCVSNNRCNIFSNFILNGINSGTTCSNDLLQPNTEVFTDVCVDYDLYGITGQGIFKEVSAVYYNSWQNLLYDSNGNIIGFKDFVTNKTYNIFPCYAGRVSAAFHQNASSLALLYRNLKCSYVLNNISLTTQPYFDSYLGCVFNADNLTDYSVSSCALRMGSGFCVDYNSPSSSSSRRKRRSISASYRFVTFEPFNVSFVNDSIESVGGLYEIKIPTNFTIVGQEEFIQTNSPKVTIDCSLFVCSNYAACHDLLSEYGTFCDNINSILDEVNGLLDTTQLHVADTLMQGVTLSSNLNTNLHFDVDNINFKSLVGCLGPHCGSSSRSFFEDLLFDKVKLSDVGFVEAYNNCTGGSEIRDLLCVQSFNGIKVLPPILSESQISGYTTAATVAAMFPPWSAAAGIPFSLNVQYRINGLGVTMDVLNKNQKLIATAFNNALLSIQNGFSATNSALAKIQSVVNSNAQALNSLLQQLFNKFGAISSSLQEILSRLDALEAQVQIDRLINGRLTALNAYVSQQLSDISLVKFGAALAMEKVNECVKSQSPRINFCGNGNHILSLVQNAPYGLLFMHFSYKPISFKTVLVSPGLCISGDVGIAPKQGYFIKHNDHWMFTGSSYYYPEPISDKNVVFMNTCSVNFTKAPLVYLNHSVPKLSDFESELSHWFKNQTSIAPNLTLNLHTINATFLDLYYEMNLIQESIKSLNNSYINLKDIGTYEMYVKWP
Kind of experiment: multiplex bead assay.

Experiment [5] addresses T4, SARS-CoV-2 S on pseudovirions (Wuhan Hu-1 / IL1/2020, last 18 amino acids removed) (SARS-CoV-2, UniProt P0DTC2 14-1273). Put plainly: cell-based or functional assay.
Experiment [6] concerns the target T5, HCoV-OC43 spike antigens (bead panel) (HCoV-OC43, UniProt P36334 14-1297).
T5 sequence: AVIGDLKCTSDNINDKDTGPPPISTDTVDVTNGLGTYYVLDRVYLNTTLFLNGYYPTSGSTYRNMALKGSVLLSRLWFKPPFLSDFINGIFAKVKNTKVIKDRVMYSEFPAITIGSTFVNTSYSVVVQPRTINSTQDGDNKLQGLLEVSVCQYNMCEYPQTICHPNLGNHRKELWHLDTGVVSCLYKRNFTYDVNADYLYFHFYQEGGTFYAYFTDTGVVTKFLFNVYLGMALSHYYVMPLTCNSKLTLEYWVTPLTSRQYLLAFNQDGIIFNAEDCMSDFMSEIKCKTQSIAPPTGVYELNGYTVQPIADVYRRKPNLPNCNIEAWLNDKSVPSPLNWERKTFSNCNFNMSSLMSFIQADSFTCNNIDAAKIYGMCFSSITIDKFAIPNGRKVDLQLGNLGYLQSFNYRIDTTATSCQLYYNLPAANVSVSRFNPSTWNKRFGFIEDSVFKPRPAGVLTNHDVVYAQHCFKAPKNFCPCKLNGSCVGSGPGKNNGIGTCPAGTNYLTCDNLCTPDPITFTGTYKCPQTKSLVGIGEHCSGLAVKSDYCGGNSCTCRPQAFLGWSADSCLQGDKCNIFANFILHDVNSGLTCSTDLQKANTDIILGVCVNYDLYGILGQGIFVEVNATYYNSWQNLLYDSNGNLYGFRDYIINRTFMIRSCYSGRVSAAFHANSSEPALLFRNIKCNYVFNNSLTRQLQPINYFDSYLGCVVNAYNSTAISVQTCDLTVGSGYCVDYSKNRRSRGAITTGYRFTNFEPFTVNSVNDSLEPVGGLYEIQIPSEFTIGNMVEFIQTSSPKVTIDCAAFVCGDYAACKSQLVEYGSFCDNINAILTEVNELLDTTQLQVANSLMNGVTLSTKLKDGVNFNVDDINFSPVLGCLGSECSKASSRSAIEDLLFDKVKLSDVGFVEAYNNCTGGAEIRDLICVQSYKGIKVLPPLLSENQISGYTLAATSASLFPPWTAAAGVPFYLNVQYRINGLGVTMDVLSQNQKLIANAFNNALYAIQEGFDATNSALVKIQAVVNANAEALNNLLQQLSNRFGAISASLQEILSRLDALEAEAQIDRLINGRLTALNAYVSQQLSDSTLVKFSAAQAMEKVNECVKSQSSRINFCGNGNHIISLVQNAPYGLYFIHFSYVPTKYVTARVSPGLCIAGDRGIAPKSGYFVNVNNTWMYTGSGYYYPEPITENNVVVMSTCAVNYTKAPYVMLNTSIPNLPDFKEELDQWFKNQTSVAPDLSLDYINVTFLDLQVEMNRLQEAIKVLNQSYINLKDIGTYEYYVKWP
Kind of experiment: multiplex bead assay.

Experiment [7] deals with T4, SARS-CoV-2 S on pseudovirions (Wuhan …). Put plainly: cell-based or functional assay. The source holds these as a separate data set.

B1: COV_3103 (antibody, V domains shown)
VH: EVQLVESGGGLVQPGRSLRLSCVASGFIVENFAMHWVRQAPGKGLEWVSGITWNSASTGYVESVKGRFSISRDNGENSMFLEMNSLRPDDTALYYCVKATGSYWGFPMDVWGQGTTVTVSS
VL: EIVLTQSPGTLSLSPGEGGTLSCRASQSVRSNYLAWYQRKPGQAPRLLIYATSNRATGIPDRFSGSGSGTDFTLTISRLEPEDFAVYFCQHYGDSPYTFGQGTKLEIKR
notes: human IgG1
In the case of B1, the binding result in experiment [1], in experiment [2], in experiment [3] and in experiment [4] was “no binding” throughout.

B2: COV_2165 (antibody, V domains shown)
VH: EVQLVESGGGLVQPGGSLRLSCAASGFTFSSYSMNWVRQAPGKGLEWVSYISSSSSTIYYADYVKGRFTISRDNAKNSLYLQMNSLRAEDRAVYYCARVARRDVAPATIAAYFLDYWGQGTLVTVSS
VL: EIVLTQSPATLSLSPGERATLSCRASQSLSSYLAWYQQKPGQAPRLLIYDASTRATGIPARFSGSGSGTDFTLTISSLEPEDFAVYYCQQRSTWPRGFTFGPGTKVDIK
notes: human IgG1
Regarding B2, in experiment [5], the “IC50, pseudotyped neutralization assay” value was determined as 10 ng/mL. The binding result in experiment [1] was “no binding”. For the same molecule, the binding result in experiment [6] is “no binding”. In addition, in experiment [7], the “Mean IC50, pSV neutralization” value is 0.02 µg/ml and the “Mean IC80, pSV neutralization” value was determined as 0.04 µg/ml.

B3: COV_2173 (antibody, V domains shown)
VH: QVQLQESGPGLVKPSETLSLTCSVSGDSISSSDYSWGWIRQPPGKGLEWIGTIYYIKNTYYNPSLRSRVTLSVDTSKNLFSLKLSSVTAADTAVYYCARERPPFDVVVVPAARPYNWFDPWGLGTLVIVSS
VL: QSVLMQPPSVSGAPGQRVTISCTGSSSNIGAGYDVHWYQQLPGTAPKLLIYGNNNRPSGVPDRFSGSKSGTSASLAITGLQADDEADYYCQSYDSSLSGSKVFGGGTKLTVL
notes: human IgG1
With B3, in experiment [5], the “IC50, pseudotyped neutralization assay” value came to 4 ng/mL. Moreover, the binding result in experiment [6] is “no binding”. For the same molecule, the “Mean IC80, pSV neutralization” value in experiment [7] was 0.01 µg/ml.
